According to US8759300B2, “Polypeptides and methods of use” (The Research Foundation for the State University of New York, priority 2007, dated 2014):
Like-named read-outs stand apart in the source and are kept apart here.

Assays:
PDGF-BB [1] = molecular target: T1, PDGF-BB (Homo sapiens, UniProt P01127); assay: Surface plasmon resonance (Biacore), PDGF-BB; format: binding
Method: (§1) In the Biacore2000 system, binding constants from kinetic data are determined by passing varying concentrations of FN peptides (analytes) over chip surfaces which are coupled with PDGF-BB (ligand), respectively. All kinetic experiments are carried out at 20° C. at a flow rate of 20 μl/min. For mass transport experiments, each analyte is injected at a fixed concentration and run at flow rates ranging from 5 to 75 μl/min. All analytes are injected over PDGF-BB ligand surfaces as well as over a control surface for 120 s, followed by 300 s of dissociation in running buffer. Regeneration of the sensor chip for subsequent injections is accomplished by pulse of 0.1% SDS. Mass transport experiments have detected little difference in response at different flow rates thus validating data from kinetic experiments. Sensorgrams are prepared and globally fitted using nonlinear least-squares analysis and numerical integration of the differential rate equations with the Biacore Bioevaluation software. Each sensogram generated using a control surface is substracted from the corresponding experimental sensorgrams, and the resulting curves are transformed to concentration units using the molecular mass of the injected species, the equivalence of 1000 resonance units (RU) per 1 ng/mm^2, and a matrix thickness of 100 nm. Each data set, which consists of a series of sensorgrams from injections of different concentration of analyte over the same surface, are analyzed using kinetic models from Biaevaluation software.

[2] = tested on: GFs (TGF-β1, PDGF-BB, VEGF, FGF-2); assay: Binding of growth factors to FN domains, GFs reported together
Method: (§2) 20 μl of 50% v/v peptide-agarose beads are incubated with 125I-PDGF in 0.1 ml of binding buffer (DMEM+2% BSA) at room temperature for 2 hours with rotation. Beads are washed 6 times with DMEM. Bound PDGF-BB are released by the addition of 100 μl of 1M NaOH. The radioactivity bound to FN-beads are quantified in a γ-counter. Nonspecific binding are established from ^125I-PDGF binding to nonconjugated beads, then specific binding derived by subtraction of nonspecific binding from total binding. Binding constants (KD) and Bmax are determined from nonlinear regression of specific binding curves using Prism 4 from GraphPad Software, San Diego, Calif. “Scatchard plots” are derived from the KD and Bmax obtained with non linear regression analysis.
In the Biacore2000 system, binding constants from kinetic data are determined by passing varying concentrations of FN peptides (analytes) over chip surfaces which are coupled with PDGF-BB (ligand), respectively. All kinetic experiments are carried out at 20° C. at a flow rate of 20 μl/min. […] Mass transport experiments have detected little difference in response at different flow rates thus validating data from kinetic experiments. […] Each data set, which consists of a series of sensorgrams from injections of different concentration of analyte over the same surface, are analyzed using kinetic models from Biaevaluation software.

bFGF (FGF-2) = bFGF (FGF-2) (Homo sapiens, UniProt P09038); assay: Equilibrium binding of bFGF (FGF-2) to FN and FN domains; conditions: method not restated (equilibrium and kinetic binding performed); read-out: KD, bFGF binding
bFGF (FGF-2), sequence (P09038 143-288): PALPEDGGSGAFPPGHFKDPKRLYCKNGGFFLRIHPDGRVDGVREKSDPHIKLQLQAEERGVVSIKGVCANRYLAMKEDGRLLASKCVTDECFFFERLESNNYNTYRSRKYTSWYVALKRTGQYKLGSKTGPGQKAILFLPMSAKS
Method: [The source words this procedure for another target and reports this target under the same test.] as §2

TGF-β1 [3] = molecular target: T2, TGF-β1 (Homo sapiens, UniProt P01137); assay: Surface plasmon resonance, TGF-β1; format: binding
T2 sequence (P01137 279-390 limits assumed): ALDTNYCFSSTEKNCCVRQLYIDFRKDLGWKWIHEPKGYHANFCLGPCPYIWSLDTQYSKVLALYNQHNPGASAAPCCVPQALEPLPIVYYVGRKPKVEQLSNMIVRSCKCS
Method: [The source words this procedure for another target and reports this target under the same test.] as §1

TGF-β1 [4] = molecular target: T2, TGF-β1; assay: Equilibrium binding of TGF-β1 to FN, FN domains and peptides
Method: [The source words this procedure for another target and reports this target under the same test.] as §2

PDGF-BB [5] = molecular target: T1, PDGF-BB; assay: Equilibrium binding of 125I-PDGF-BB to FN, FN domains and peptides; conditions: for Kd: equilibrium binding
Method: as §2

[6] = tested on: GFs (TGF-β1, PDGF-BB, VEGF, FGF-2); assay: Binding of growth factors to FN domains, GFs reported together; remark: listed apart in the source
VEGF = molecular target: T3, VEGF (Homo sapiens, UniProt P15692); assay: Surface plasmon resonance, VEGF; format: binding; conditions: plasmon resonance; read-out: KD, VEGF binding
T3 sequence (P15692 27-191 isoform P15692-4): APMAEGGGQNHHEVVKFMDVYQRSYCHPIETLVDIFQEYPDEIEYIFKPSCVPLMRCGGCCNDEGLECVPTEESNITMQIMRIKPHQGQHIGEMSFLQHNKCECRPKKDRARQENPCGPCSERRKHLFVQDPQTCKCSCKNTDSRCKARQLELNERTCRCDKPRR

FGF-2 = FGF-2 (Homo sapiens, UniProt P09038); assay: Surface plasmon resonance, FGF-2; conditions: read-out: KD, FGF-2 binding
FGF-2, sequence (P09038 143-288): as the sequence (P09038 143-288) above
Method: [The source words this procedure for another target and reports this target under the same test.] as §1, with “Each sensogram generated using a control surface is substracted from the corresponding experimental sensorgrams, and the resulting curves are transformed to concentration units using the molecular mass of the injected species, the equivalence of 1000 resonance units (RU) per 1 ng/mm^2, and a matrix thickness of 100 nm.” left out

FN-null cells = assay: FN-null cell survival on surfaces coated with FN domains; format: cell-based, mouse; conditions: for FN-null cell survival / proliferation: FNIII8-11 ± named FN domain, or named FN construct, PDGF-BB added 2 hrs after plating; for FN-null cell survival with PDGF at 3 days: surface precoated with 0.15 μM GST-tagged FNIII8-11 ± named FN domain, or named FN construct, PDGF-BB added 1 day after plating
Method: To further investigate the response of cells to PDGF-BB bound to FN domains, we investigated the survival response of mouse fibroblasts null for FN (FN−/−), or “FN-null”. First we determined the response of FN-null cells to PDGF-BB in the absence of serum or other sources of exogenous FN. […] Next, FN-null cells were plated on tissue culture plastic surfaces precoated with 0.15 μM GST-tagged FNIII8-11±other FN domains known to have PDGF-BB binding activity and then PDGF-BB added 1 day later. […] Importantly, differential response of FN-null cells, plated on different FN domains, to PDGF-BB was not secondary to differences in attachment as judged by cell counts two hours after plating. The FNIII8-11 central cell binding domain was present in all circumstances.

EGF = EGF (Homo sapiens, UniProt P01133); assay: Binding of EGF to FN, FN domains and peptides
EGF, sequence (P01133 971-1023 limits assumed, species assumed): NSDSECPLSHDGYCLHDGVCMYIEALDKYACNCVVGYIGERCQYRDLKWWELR

[7] = plasmon resonance, kinetic binding
[8] = method not restated, read-out: KD, PDGF-BB binding
[9] = method not restated, read-out: KD, TGF-β1 binding
[10] = method not restated (equilibrium and kinetic binding performed)

T1 sequence (P01127 82-190 limits assumed): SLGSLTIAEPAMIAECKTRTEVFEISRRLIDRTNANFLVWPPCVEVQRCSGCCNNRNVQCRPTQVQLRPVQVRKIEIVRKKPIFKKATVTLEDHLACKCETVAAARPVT

B1: FNIII1-7: FN domain, type III repeats 1-7 (protein)
chain: MGSGPVEVFITETPSQPNSHPIQWNAPQPSHISKYILRWRPKNSVGRWKEATIPGHLNSYTIKGLKPGVVYEGQLISIQQYGHQEVTRFDFTTTSTSTPVTSNTVTGETTPFSPLVATSESVTEITASSFVVSWVSASDTVSGFRVEYELSEEGDEPQYLDLPSTATSVNIPDLLPGRKYIVNVYQISEDGEQSLILSTSQTTAPDAPPDTTVDQVDDTSIVVRWSRPQAPITGYRIVYSPSVEGSSTELNLPETANSVTLSDLQPGVQYNITIYAVEENQESTPVVIQQETTGTPRSDTVPSPRDLQFVEVTDVKVTIMWTPPESAVTGYRVDVIPVNLPGEHGQRLPISRNTFAEVTGLSPGVTYYFKVFAVSHGRESKPLTAQQTTKLDAPTNLQFVNETDSTVLVRWTPPRAQITGYRLTVGLTRRGQPRQYNVGPSVSKYPLRNLQPASEYTVSLVAIKGNQESPKATGVFTTLQPGSSIPPYNTEVTETTIVITWTPAPRIGFKLGVRPSQGGEAPREVTSDSGSIVVSGLTPGVEYVYTIQVLRDGQERDAPIVNKVVTPLSPPTNLHLEANPDTGVLTVSWERSTTPDITGYRITTTPTNGQQGNSLEEVVHADQSSCTFDNLSPGLEYNVSVYTVKDDKESVPISDTIIPETSHHHHHHC
- Kd (PDGF-BB [1]; [7]): 100 nM
- Binding of the GFs tested, in words [2]: all four GFs bound
- Kd (bFGF (FGF-2)): 4.1 nM
- Kd (TGF-β1 [3]; [7]): 18 nM
- Kd (TGF-β1 [4]; equilibrium binding): 17 nM
- Kd (PDGF-BB [5]): 75 nM

B2: FNIII12-V15: composite heparinII-binding and variably-spliced IIICS domains of FN (protein)
chain: MGSAIPAPTDLKFTQVTPTSLSAQWTPPNVQLTGYRVRVTPKEKTGPMKEINLAPDSSSVVVSGLMVATKYEVSVYALKDTLTSRPAQGVVTTLENVSPPRRARVTDATETTITISWRTKTETITGFQVDAVPANGQTPIQRTIKPDVRSYTITGLQPGTDYKIYLYTLNDNARSSPVVIDASTAIDAPSNLRFLATTPNSLLVSWQPPRARITGYIIKYEKPGSPPREVVPRPRPGVTEATITGLEPGTEYTIYVIALKNNQKSEPLIGRKKTDELPQLVTLPHPNLHGPEILDVPSTVQKTPFVTHPGYDTGNGIQLPGTSGQQPSVGQQMIFEEHGFRRTTPPTTATPIRHRPRPYPPNVGEEIQIGHIPREDVDYHLYPHGPGLNPNASTGQEALSQTTISWAPFQDTSEYIISCHPVGTDEEPLQFRVPGTSTSATLTGLTRGATYNVIVEALKDQQRHKVREEVVTVGNSVNEGTSHHHHHHC
- Kd (PDGF-BB [1]; [7]): 17 nM
- GF binding with up to 2.5 M NaCl or pH lowered to about 2.0 [6]: failed to demonstrate any diminution
- Kd (bFGF (FGF-2)): 37 nM
- Kd (TGF-β1 [4]; equilibrium binding): 97 nM
- Kd (PDGF-BB [5]): 21 nM
- Kd (VEGF): 0.6 nM
- Kd (FGF-2; plasmon resonance): 37 nM
- FN-null cell survival / proliferation (FN-null cells): enhance survival

B3: FNIII12-13: FN domain, type III repeats 12-13 (protein)
chain: MGSAIPAPTDLKFTQVTPTSLSAQWTPPNVQLTGYRVRVTPKEKTGPMKEINLAPDSSSVVVSGLMVATKYEVSVYALKDTLTSRPAQGVVTTLENVSPPRRARVTDATETTITISWRTKTETITGFQVDAVPANGQTPIQRTIKPDVRSYTITGLQPGTDYKIYLYTLNDNARSSPVVIDASTTSHHHHHHC
- Kd (PDGF-BB [5]): 75 nM

B4: FNIII3-6: recombinant FN domain, type III repeats 3-6 (protein)
chain: MGSAPPDTTVDQVDDTSIVVRWSRPQAPITGYRIVYSPSVEGSSTELNLPETANSVTLSDLQPGVQYNITIYAVEENQESTPVVIQQETTGTPRSDTVPSPRDLQFVEVTDVKVTIMWTPPESAVTGYRVDVIPVNLPGEHGQRLPISRNTFAEVTGLSPGVTYYFKVFAVSHGRESKPLTAQQTTKLDAPTNLQFVNETDSTVLVRWTPPRAQITGYRLTVGLTRRGQPRQYNVGPSVSKYPLRNLQPASEYTVSLVAIKGNQESPKATGVFTTLQPGSSIPPYNTEVTETTIVITWTPAPRIGFKLGVRPSQGGEAPREVTSDSGSIVVSGLTPGVEYVYTIQVLRDGQERDAPIVNKVVTPLSTSHHHHHHC
- PDGF-BB binding, in words (PDGF-BB [1]; surface resonance): no binding
- Binding of the GFs tested, in words [2]: In no case did any GF bind
- PDGF-BB binding, in words (PDGF-BB [5]; equilibrium binding and/or plasmon resonance): did not
- FN-null cell survival / proliferation, summary statement (FN-null cells; cells plated on named FN construct, or on FNIII8-11 ± named domain): did not support cell survival

B5: FNIII12-14: recombinant heparinII-binding domain of FN, type III repeats 12-14 (protein)
chain: MGSAIPAPTDLKFTQVTPTSLSAQWTPPNVQLTGYRVRVTPKEKTGPMKEINLAPDSSSVVVSGLMVATKYEVSVYALKDTLTSRPAQGVVTTLENVSPPRRARVTDATETTITISWRTKTETITGFQVDAVPANGQTPIQRTIKPDVRSYTITGLQPGTDYKIYLYTLNDNARSSPVVIDASTAIDAPSNLRFLATTPNSLLVSWQPPRARITGYIIKYEKPGSPPREVVPRPRPGVTEATITGLEPGTEYTIYVIALKNNQKSEPLIGRKKTTSHHHHHHC
- Kd (PDGF-BB [1]; [8]): 55 nM
- Kd (bFGF (FGF-2)): 1.9 nM
- Kd (TGF-β1 [3]; [9]): 7.6 nM
- Kd (TGF-β1 [4]; [10]): 7.6 nM
- Kd (PDGF-BB [5]): 35 nM
- FN-null cell survival / proliferation (FN-null cells): enhance survival
- FN-null cell survival with PDGF at 3 days (FN-null cells): increased survival

B6: FNIII12-15: heparin II binding domain of FN (protein)
chain: MGSTIPAPTDLKFTQVTPTSLSAQWTPPNVQLTGYRVRVTPKEKTGPMKEINLAPDSSSVVVSGLMVATKYEVSVYALKDTLTSRPAQGVVTTLENVSPPRRARVTDATETTITISWRTKTETITGFQVDAVPANGQTPIQRTIKPDVRSYTITGLQPGTDYKIYLYTLNDNARSSPVVIDASTAIDAPSNLRFLATTPNSLLVSWQPPRARITGYIIKYEKPGSPPREVVPRPRPGVTEATITGLEPGTEYTIYVIALKNNQKSEPLIGRKKTGQEALSQTTISWAPFQDTSEYIISCHPVGTDEEPLQFRVPGTSTSATLTGLTRGATYNVIVEALKDQQRHKVREEVVTVGNSVNEGTSHHHHHHC
- Kd (PDGF-BB [1]; [8]): 6.8 nM
- Kd (bFGF (FGF-2)): 130 nM
- Kd (TGF-β1 [3]; [9]): 16 nM
- Kd (TGF-β1 [4]; [10]): 16 nM
- Kd (PDGF-BB [5]): 6.8 nM
- Kd (FGF-2; method not restated): 170 nM

B7: IIICS: variably-spliced IIICS domain of FN (protein)
chain: MGSDELPQLVTLPHPNLHGPEILDVPSTVQKTPFVTHPGYDTGNGIQLPGTSGQQPSVGQQMIFEEHGFRRTTPPTTATPIRHRPRPYPPNVGEEIQIGHIPREDVDYHLYPHGPGLNPNASTTSHHHHHHC
- Kd (TGF-β1 [4]; [10]): 74 nM
- Kd (PDGF-BB [5]): 350 nM
- EGF binding, in words (EGF): failed to bind
- FN-null cell survival / proliferation (FN-null cells): enhance survival
- FN-null cell survival with PDGF at 3 days (FN-null cells): increased survival
